Source: article PMC10754921

Biological target: FMC63-scFv (VL - Whitlow linker - VH, C-terminal His8 tag) (mouse)
Assay: SEC-MALS; 25 µg injected, Superdex 200 Increase 10/300 GL, PBS with additional 200 mM NaCl, pH 7.4, 25 °C

Substance: FMC63-scFv (VL - Whitlow linker - VH, C-terminal His8 tag)
- percent dimers: 20%
- stoichiometry N: 2
